This experiment addresses murine dimeric IgA (mouse) (UniProt P01592). Kind of experiment: cell-based or functional assay.

We go through one substance from US6924412.

Sequence of UniProt P01592 (P01592 22-159): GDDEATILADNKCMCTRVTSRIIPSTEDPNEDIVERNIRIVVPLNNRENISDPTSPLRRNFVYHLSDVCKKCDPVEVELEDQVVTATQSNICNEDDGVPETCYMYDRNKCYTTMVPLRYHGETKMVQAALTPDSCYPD

In turn, “murine polymeric immunoglobulin receptor (from UniProt O70570 19-771)” showed a total IgA concentration in milk by ELISA, transgenic line 3644 (270-fold increased SC); control mean 292 mg/ml of 593 and a total IgA level in milk by ELISA, transgenic line 3646 (60-fold elevated SC) against control mice of 1.5 times.
